From patent US20240368253A1 (BIO TECHNE, published 2024)
Values belong to the binder of their own block, whether it stands above or below them.

Columns and labels:
[1] = biological target: T1, alphaVBeta5 (αVβ5) integrin heterodimer (UniProt P06756 31-992; P18084 24-719); experiment: ELISA
T1 construct: Heterodimer used in ELISA; source and construct not described; also called aVB5

[2] = biological target: T1, alphaVBeta5 (αVβ5) integrin heterodimer; experiment: ELISA, average of 5 experiments normalized to VTN-FL
[3] = biological target: T1, alphaVBeta5 (αVβ5) integrin heterodimer; experiment: ELISA; printed as ED50 (median effective dose)

T1 sequence (P06756 31-992, chain 1 of 2): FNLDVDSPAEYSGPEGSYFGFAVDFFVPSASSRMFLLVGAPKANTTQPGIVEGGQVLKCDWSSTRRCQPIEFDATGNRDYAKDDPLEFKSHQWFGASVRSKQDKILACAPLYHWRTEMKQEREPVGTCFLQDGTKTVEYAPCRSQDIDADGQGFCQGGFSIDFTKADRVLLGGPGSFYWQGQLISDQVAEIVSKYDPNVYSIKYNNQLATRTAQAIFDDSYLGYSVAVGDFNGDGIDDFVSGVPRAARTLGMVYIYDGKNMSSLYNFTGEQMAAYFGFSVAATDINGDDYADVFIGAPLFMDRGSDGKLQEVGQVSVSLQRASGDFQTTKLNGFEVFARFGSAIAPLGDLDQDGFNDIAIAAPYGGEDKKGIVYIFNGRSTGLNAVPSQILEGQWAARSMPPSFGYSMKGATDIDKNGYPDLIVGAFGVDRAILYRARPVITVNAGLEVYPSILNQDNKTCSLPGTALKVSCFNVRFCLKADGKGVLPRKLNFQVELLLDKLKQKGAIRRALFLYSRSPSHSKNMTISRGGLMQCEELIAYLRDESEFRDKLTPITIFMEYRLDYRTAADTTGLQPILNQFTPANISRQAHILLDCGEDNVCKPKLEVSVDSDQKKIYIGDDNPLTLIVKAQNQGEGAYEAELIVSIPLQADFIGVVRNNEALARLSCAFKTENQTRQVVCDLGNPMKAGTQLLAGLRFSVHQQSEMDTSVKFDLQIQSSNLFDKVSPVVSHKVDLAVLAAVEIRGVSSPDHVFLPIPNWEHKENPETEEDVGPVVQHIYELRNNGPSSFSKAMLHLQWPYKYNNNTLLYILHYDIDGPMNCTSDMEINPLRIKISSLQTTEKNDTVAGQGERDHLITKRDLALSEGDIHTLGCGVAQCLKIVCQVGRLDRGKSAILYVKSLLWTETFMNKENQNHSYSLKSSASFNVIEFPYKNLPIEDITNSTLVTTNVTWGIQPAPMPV
T1 sequence (P18084 24-719, chain 2 of 2): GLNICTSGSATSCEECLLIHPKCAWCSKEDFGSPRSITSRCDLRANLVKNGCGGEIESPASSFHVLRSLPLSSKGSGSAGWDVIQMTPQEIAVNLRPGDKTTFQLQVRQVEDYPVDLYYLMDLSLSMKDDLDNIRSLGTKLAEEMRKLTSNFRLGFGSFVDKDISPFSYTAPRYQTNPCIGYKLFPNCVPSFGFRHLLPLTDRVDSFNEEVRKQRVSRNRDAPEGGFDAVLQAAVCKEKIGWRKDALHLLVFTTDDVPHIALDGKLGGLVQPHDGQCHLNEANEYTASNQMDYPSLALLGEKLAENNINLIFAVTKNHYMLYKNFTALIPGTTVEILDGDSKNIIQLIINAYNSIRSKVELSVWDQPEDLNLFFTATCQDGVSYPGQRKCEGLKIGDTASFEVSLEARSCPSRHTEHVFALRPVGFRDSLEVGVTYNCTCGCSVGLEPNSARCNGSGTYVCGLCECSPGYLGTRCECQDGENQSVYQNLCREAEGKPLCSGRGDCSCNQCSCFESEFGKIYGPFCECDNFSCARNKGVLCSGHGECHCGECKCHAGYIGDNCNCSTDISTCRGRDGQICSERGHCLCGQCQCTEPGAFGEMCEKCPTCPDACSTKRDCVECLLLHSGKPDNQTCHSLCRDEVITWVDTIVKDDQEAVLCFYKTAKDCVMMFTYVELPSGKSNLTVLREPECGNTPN

- fold increase in binding affinity [1]: ~2 fold
B1: VTN62-292,D80Y (ligand)
chain: MVTRGDVFTMPEDEYTVYDYGEEKNNATVHEQVGGPSLTSDLQAQSKGNPEQTPVLKPEEEAPAPEVGASKPEGIDSRPETLHPGRPQPPAEEELCSGKPFDAFTDLKNGSLFAFRGQYCYELDEKAVRPGYPKLIRDVWGIEGPIDAAFTRINCQGKTYLFKGSQYWRFEDGVLDPDYPRNISDGFDGIPDNVDAALALPAHSYSGRERVYFFKGKQYWEYQFQHQPSQEEHHHHHH
notes: also called D80Y mutant

- fold increase in ED50 [2]: > 7 fold
- EC50 [3]: 0.523 µg/mL
B2: VTN62-292 T63G, V67N, F68P (ligand)
chain: VGRGDNPTMPEDEYTVYDDGEEKNNATVHEQVGGPSLTSDLQAQSKGNPEQTPVLKPEEEAPAPEVGASKPEGIDSRPETLHPGRPQPPAEEELCSGKPFDAFTDLKNGSLFAFRGQYCYELDEKAVRPGYPKLIRDVWGIEGPIDAAFTRINCQGKTYLFKGSQYWRFEDGVLDPDYPRNISDGFDGIPDNVDAALALPAHSYSGRERVYFFKGKQYWEYQFQHQPSQEEHHHHHH
notes: also called VN-3
